# In publication doi:10.1101/2022.06.01.494398:
# Target: CERTL (long isoform of the ceramide transport protein CERT; GPBP, COL4A3BP) (UniProt Q9Y5P4)
# Test: SEC-MALS of self-association
# Conditions: reference: hyperphosphorylated wild-type StrepII-CERTL (CERTLP); sites S132
# Sequence of CERTL (long isoform of the ceramide transport protein CERT; GPBP, COL4A3BP) (Q9Y5P4 whole entry S132A, canonical isoform): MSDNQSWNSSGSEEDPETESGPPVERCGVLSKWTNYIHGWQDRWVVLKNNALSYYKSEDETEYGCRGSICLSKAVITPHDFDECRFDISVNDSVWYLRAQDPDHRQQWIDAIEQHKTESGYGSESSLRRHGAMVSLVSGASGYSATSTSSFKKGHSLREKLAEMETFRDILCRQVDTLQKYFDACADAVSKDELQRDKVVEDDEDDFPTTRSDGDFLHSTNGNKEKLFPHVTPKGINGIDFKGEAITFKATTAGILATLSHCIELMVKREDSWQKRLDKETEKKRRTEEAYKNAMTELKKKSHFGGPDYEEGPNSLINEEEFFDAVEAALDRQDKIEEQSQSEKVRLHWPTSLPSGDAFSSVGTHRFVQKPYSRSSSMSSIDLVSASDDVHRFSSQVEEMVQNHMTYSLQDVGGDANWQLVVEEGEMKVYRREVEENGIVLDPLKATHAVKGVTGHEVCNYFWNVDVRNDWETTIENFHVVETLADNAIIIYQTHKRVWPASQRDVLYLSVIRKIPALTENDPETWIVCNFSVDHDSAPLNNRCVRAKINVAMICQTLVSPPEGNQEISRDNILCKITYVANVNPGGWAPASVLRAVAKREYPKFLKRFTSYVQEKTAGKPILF
substance,measurement,value
"CERTL (long isoform of the ceramide transport protein CERT; GPBP, COL4A3BP) (from UniProt Q9Y5P4) StrepII-CERTL S132A (hypophosphorylated)",other: observed mass (expected trimer 215.7),same; reference 184.3
